Here are results for one molecule from patent US20070299029A1, “Hepatic stellate cell specific promoter and uses thereof” (Agency for Science, Technology and Research, priority 2005, published 2007).

The subject of one assay is GFAP-lacZ transgene. The experiment in a line: chemiluminescent β-galactosidase activity assay of GFAP-lacZ transgene expression in T6/GFAP-lacZ cells. Format: cell-based, rat. Conditions: 10 ng/ml PDGF-BB, 48 hours, low serum DMEM. The protocol: (§1) Cells were initially seeded in 12-well plates in DMEM supplemented with 10% FBS and weaned to a low serum DMEM (0.5% FBS) at a confluence of 70-80% for 12 hours of adaptation. Cells were then incubated with different concentrations of compounds for various amounts of time before being assayed for β-galactosidase activity and GFAP mRNA. For compound attenuation studies, cells were treated with a pro-fibrotic cytokine (TGF-β1 or PDGF-BB) either sequentially or concurrently with a compound (EGCG or genistein). In the sequential scheme, cells were first treated with a cytokine for 1-3 days, then the cytokine-containing culture medium was replaced with a fresh medium containing a particular compound only for various times. Details of the cytokine/compound treatments can be found in the individual figure legends.
A lacZ reporter assay kit for cell staining (InvivoGen, CA, USA) was used to detect the reporter gene activity in T6/GFAP-lacZ cells treated with EGCG or genistein. The staining results were documented with a digital camera (DP12) attached to an Olympus inverted bright field microscope (IX51) after development for 60 min. For quantification, the β-galactosidase activity in cell extracts was measured using a chemiluminescent assay kit (Roche, Mannheim, Germany) in a 96-well plate format, according to the manufacturer's instructions. Briefly, cells were washed twice with ice-cold 1×PBS (pH 7.4), lysed for 30 minutes at room temperature with the lysis buffer, and supernatant was collected for assays. Protein concentration was determined with a BCA protein assay kit (Pierce, Ill., USA). Specific β-galactosidase activity was obtained by normalizing against total cellular protein content.

In another assay the test system is endogenous rat GFAP mRNA. The experiment in a line: real-time RT-PCR for endogenous rat GFAP mRNA in T6/GFAP-lacZ cells. Format: cell-based. To be noted: 10 ng/ml PDGF-BB, 24 hours, low serum DMEM. The protocol:
as §1
Total RNA was reverse-transcribed to cDNA using Taqman's reverse transcription reagent (Applied Biosystems, CA, USA). A total of 200 ng of RNA in 7.7 μl of nuclease-free water was added to 2 μl 10× reverse transcriptase buffer, 4.4 μl 25 mM magnesium chloride, 4 μl deoxyNTP mixtures, 1 μl random hexamers, 0.4 μl RNase inhibitor and 0.5 μl reverse transcriptase (50 U/μl) in a final reaction volume of 20 μl. The reaction was performed for 10 min at 25° C. (annealing), 30 min at 48° C. (cDNA synthesis) and 5 min at 95° C. (enzyme denaturation).
Real-time quantitative PCR was carried out with an ABI 7500 Fast Real-time PCR System (Applied Biosystems, CA, USA). Two micro liters of sample cDNA were used in each PCR reaction, with β-actin gene as a reference for normalization. The primers and probes for rat β-actin and GFAP were ordered from Taqman's assay-on-demand database. The PCR reaction was performed under a default profile consisting of 95° C. for 20 seconds (enzyme denaturation) and 40 cycles of amplification (denaturation 3 seconds, annealing and extension 30 seconds). Some of the real-time RT-PCR reactions were separated on an agarose gel for visual confirmation of discrete products (data not shown).
Relative quantitation of the target mRNA was calculated using the comparative threshold cycle (CT) methods as described in the User Bulletin #2 (ABI Prism 7700 Sequence Detection System). CT indicates the fractional cycle number at which the amount of amplified target reaches a fixed threshold within the linear phase of gene amplification. ΔCT, which reflects the difference between CT target and CT β-actin, is inversely correlated to the abundance of mRNA transcripts in the samples. ACT for each sample was normalized against control experiment or calibrator and expressed as ΔΔCT. Relative quantitation is given by 2^−ΔΔCT to express the up-regulation or down-regulation of the target gene under the treatments compared to the control.

The test system of assay [1] is GFAP-lacZ expression in T6/lacZ/C1 cells. Put plainly: X-gal staining of T6/lacZ/C1 cells treated with TGF-β1, PDGF-BB and LPS. In kind it is cell-based, rat. To be noted: 0.1 to 10 ng/ml, full DMEM, 72 hours, X-gal one hour. The protocol:
A lacZ reporter assay kit for cell staining (InvivoGen, CA, USA) was used to detect the reporter gene activity in both stable and transient transfectants. Development of the blue end product was monitored at different time intervals (15, 30, 60, 90, and 120 minutes). The staining results were documented with a digital camera (DP12) attached to an Olympus inverted bright field microscope (IX51).
To determine possible induction of GFAP-lacZ expression by molecules with pro-fibrotic and proinflammatory properties in activated HSC the T6/lacZ/C1 cells were treated with TGF-β1, PDGF-BB and LPS respectively at various concentrations (0, 0.1, 1 and 10 ng/ml) in the full DMEM medium for 72 hours. The cells were then stained with X-gal for one hour and photographed. […] In order to obtain truly quantitative data, a solution assay was employed to measure possible up-regulation of β-galactosidase activity by TGF-β1 in experiments below.

B1: PDGF-BB: recombinant human platelet derived growth factor-BB, pro-fibrotic cytokine (BioVision) (protein, UniProt P01127 82-190, looked up)
Platelet-derived growth …: SLGSLTIAEPAMIAECKTRTEVFEISRRLIDRTNANFLVWPPCVEVQRCSGCCNNRNVQCRPTQVQLRPVQVRKIEIVRKKPIFKKATVTLEDHLACKCETVAAARPVT
For B1, the “induction of transgenic GFAP-lacZ expression” value in the assay with GFAP-lacZ transgene was 24%. Also, the “induction of endogenous GFAP” value in the assay with endogenous rat GFAP mRNA is on record as 53%. Also, in assay [1], the “X-gal blue staining compared to the untreated” value is “less pronounced response”.
